{"source": "paper PMC6564026", "about": "“An autoinducer-independent RhlR quorum-sensing receptor enables analysis of RhlR regulation”", "binders": {"B1": {"name": "rhl-box consensus (dsDNA)", "DNA 1": "ACCTGCCAGATTTCGCAGGT", "DNA 2": "ACCTGCGAAATCTGGCAGGT"}}, "key": {"MBP-RhlR*": {"target": "MBP-RhlR* (Pseudomonas aeruginosa, UniProt P54292 1-241, Y64F;W68F;V133F)", "experiment": "ITC; no ligand; EMSA: 20 mM Tris-HCl pH 8, 50 mM KCl, 1 mM EDTA, 1 mM DTT, 1.5 mg/mL poly-IC, 50 ug/mL BSA, 10% glycerol, room temp 15 min; ITC: 25 C, S200 buffer (200 mM NaCl, 20 mM Tris-HCl pH 8, 1 mM DTT), 20 uM DNA titrated into 1 uM protein", "details": "protein: recombinant; tags: N-terminal MBP (pMALC2x); chain copies: 2; duplex not explicitly stated"}, "MBP-RhlR:mBTL": {"target": "MBP-RhlR:mBTL (Pseudomonas aeruginosa, UniProt P54292 1-241)", "experiment": "ITC; mBTL; EMSA: 20 mM Tris-HCl pH 8, 50 mM KCl, 1 mM EDTA, 1 mM DTT, 1.5 mg/mL poly-IC, 50 ug/mL BSA, 10% glycerol, room temp 15 min; ITC: 25 C, S200 buffer (200 mM NaCl, 20 mM Tris-HCl pH 8, 1 mM DTT), 20 uM DNA titrated into 1 uM protein", "details": "protein: recombinant; tags: N-terminal MBP (pMALC2x); chain copies: 2; duplex not explicitly stated"}}, "data": [{"binder": "B1", "values": [{"measurement": "Kd", "setting": "MBP-RhlR*", "value": 34, "unit": "nM"}, {"measurement": "Kd", "setting": "MBP-RhlR:mBTL", "value": 23, "unit": "nM"}]}]}
